In data set [1] the test system is SARS-COV-2 omicron variant. Type of data set: cell-based. The following applies: slncRNA alone, low concentrations (potentially a non-specific effect at higher concentrations).
Data set [2] relates to SARS-COV-2 delta variant. Type of data set: cell-based. The conditions noted are these: slncRNA alone, low concentrations (potentially a non-specific effect at higher concentrations).

B1: PCP-14×/MCP-15×: class II slncRNA with fourteen PCP binding sites spaced by hairpins that do not bind PCP (SEQ ID NO: 28) (nucleic acid)
chain: GAGAAACGTTTCGACATTATATGGAATGCGAAAGTGGAACGTAATGGACATGAAGACGATTACGCTTCACACGGAGGATGCGGGAAACATGAAGATCACCCATGTTCGCTTAACCATGGATAGGGATCACCCATGTTGCGGTGGTGCGTCAACCAGAGATTTCATATGGGAAACTCTGGGACACGCTGTATTTATACATGAGGATCACCATGTGTGCTTAAATATGGGTAAGTTGACCATTAGGCAACTGTAAGATGCTCCGGTTAATTCCAGTTTATATGGAAACGGAATTGATGTACCGTTGAGCAAGAACACGATTACGGTTCTTCGATTAGATATGGTTTAAACGACAATATATGGATTGCGTTTTGGGGCACGCCGTCTGGAGAAGACCATTAGGCTTCTTTACTGCGACCGCAATAAAAGGAGATTATATGAAATCCCTTTGCGCGCAACCGGGTAGAAGATCACCATTAGGGATCTGTAACTCACGGCGCTATTACGAGTCAATATGGTGACCGTAAAGCTAGGGCATGTGCCAGAAGAGCATTAGCCTTCTCCTTGGTGGGGAAGCGATAAGCACATTATAAGGAATGGCTTAAAGTGGTGCGGCGGGGGACTTGACCATTAGGCAAGTGTGCTAGACCCTGGTCTTTTCGAGAAAATATGGTTTCCGAAAGAACTATACGAAGTGACATGCGAGGATTACCCGCATATGGTGCAAATGGGAGAATTGGAGTAAATATGGTTACCCAATAGGCTAGAGCATGACGGCAGTGAGAATTATCCACTGGTTAGCGGGTTACCGAGATTGCACATTATATGGAATGGCAATTGATTCATGCCGGTCGTTTGTGAGGAGTACCCACAAAATGGGAGGGTGCTATATAACCAGGTTATATGCAACCGGTTAGGCCGTTGTGTTAGTTTAGTTCAGCATTAGCGAACTGTGCAAGACCCGGTGGCTAAGGAGTTTATATGGAAACCCTTAGCCCTCGAGCATGCTAACATGAGGATTACCCATGTGATGGGTTTGAAACGTGCAATTATTTGATATGGCAAAAATTGGGTAGGGCATGGCTGCAGCGTGAGAATTATCCACGCTAGGCTAGAGCATGGCGGTATTGAGTTCGGGTTTGAGATGACCATTAGGCATCTGTGCTAGAGCATGCGAAAACGACATAATATGGTATGCGTTTTGGGGTGCTAGTATACCACATGATGAGCACACATGTATGGGTGGGAGGTAGAGGGATTCTCGCGAGAAGA
For the molecule B1, the antiviral response result in data set [1] and in data set [2] was “no substantial antiviral response” throughout.

The record behind these values is US20240218024A1, “METHODS AND COMPOSITIONS FOR TREATMENT OF VIRAL INFECTION” (TECHNION RESEARCH & DEVELOPMENT FOUNDATION LIMITED, priority 2021, published 2024).
